Source: article PMC10872757

Target: MurAA-His6 (wild-type), UDP-N-acetylglucosamine 1-carboxyvinyl transferase of Enterococcus faecalis (Enterococcus faecalis)
Test: thermal shift assay

Chain of MurAA-His6 (wild-type), UDP-N-acetylglucosamine 1-carboxyvinyl transferase of Enterococcus faecalis (Enterococcus faecalis) (Q831A8 whole entry): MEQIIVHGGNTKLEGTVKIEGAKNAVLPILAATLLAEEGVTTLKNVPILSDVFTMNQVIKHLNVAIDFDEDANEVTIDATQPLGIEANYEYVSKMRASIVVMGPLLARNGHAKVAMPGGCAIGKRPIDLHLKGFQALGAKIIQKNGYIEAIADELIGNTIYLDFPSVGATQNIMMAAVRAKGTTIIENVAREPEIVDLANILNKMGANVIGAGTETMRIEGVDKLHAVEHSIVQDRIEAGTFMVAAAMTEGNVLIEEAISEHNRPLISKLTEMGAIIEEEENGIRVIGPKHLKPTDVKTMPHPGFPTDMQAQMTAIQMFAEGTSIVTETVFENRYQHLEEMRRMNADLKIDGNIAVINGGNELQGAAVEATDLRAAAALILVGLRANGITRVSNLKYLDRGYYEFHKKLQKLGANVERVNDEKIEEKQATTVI

B1: IreB (unphosphorylated), substrate of the PASTA kinase IreK of Enterococcus faecalis (natural protein)
chain: MGFTDETVRFDFDDNRKKAISETLETVYRALEEKGYNPINQIVGYLLSGDPAYIPRYQDARNLIRRHERDEIMEELTKYYLANHGIDIK
- additional shift of the MurAA Tm with IreB: 16.5 °C
